In patent US20220024975A1 (ARROWHEAD PHARMACEUTICALS, published 2022) one finds MFI (specific MFI ratio, sample/no-ligand) data, which are given here for 45 substances.

“And” between values parts separate entries of the source, which are not always exact repeats. Equal entries are not always repeated. Non-standard residues stand in square brackets, D forms with d. No end group written: not given here. Cha = N[C@@H](CC1CCCCC1)C(=O)O; Cit = NC(=O)NCCC[C@H](N)C(=O)O; Abu = CC[C@H](N)C(=O)O; Aib = CC(C)(N)C(=O)O; Sar = CNCC(=O)O

This experiment concerns the target T1, αvβ6 integrin (human, UniProt P06756 31-1048; P18564 22-788).
T1 construct: whole, on cells; target is the endogenous integrin on αvβ6 positive-control cell lines; also called Integrin alpha-v beta-6
The experiment is described as follows: flow cytometry, Cy5-polymer conjugate 5 µg/ml, H2009 cells. The source says: B. αvβ6 ligand binding (flow cytometric analyses). To assess for specificity of binding of the αvβ6 ligands to the αvβ6 integrin, each αvβ6 ligand or negative control peptide was conjugated to a Cy5-labeled polymer (as described above) and evaluated for binding to cells. […] H2009 (human lung epithelial adenocarcinoma) and CAPAN-2 (human pancreas adenocarcinoma) cells served as the αvβ6 positive-control cell lines. Cells were detached from culturing flasks with Accutase, washed in PBS, and seeded into 5 ml polystyrene round-bottom tubes at 200,000 cells in 200 μl complete media (culturing media with supplements and fetal calf serum). αvβ6 ligand-polymer conjugates or no-ligand-polymer conjugates were added at 5 μg/ml (polymer-Cy5 concentration) to cells, mixed and incubated at 37° C. for 3 h. Incubation at 37° C. facilitated ligand/receptor interaction which may result in static binding to the extracellular cell surface and/or internalized ligand/receptor complexes. The mixture was re-suspended at 1 h intervals. Following a 3 h incubation, cells were washed 2× with 4 ml chilled buffer (PBS-2% FCS) and re-suspended in 200 μl buffer containing 10 μM SYTOX blue stain for live/dead cell gating. Samples were analyzed on a BD Biosciences Canto II cytometer equipped with a violet (405 nm), blue (488 nm) and red (633 nm) lasers.
Viable cells were initially gated as the SYTOX blue negative population on the C detector with the violet laser. These viable cells were then assessed for conjugate binding/uptake with the red laser as the Mean Fluorescence Intensity (MFI) of the Cy5 fluorophore. Data analyses were performed with FlowJo v10.1 software. A specific MFI Ratio (sMFIr) for each αvβ6 ligand was determined by the formula: […]
(A flow cytometer gives signals particle by particle.)

T1 sequence (P06756 31-1048, chain 1 of 2): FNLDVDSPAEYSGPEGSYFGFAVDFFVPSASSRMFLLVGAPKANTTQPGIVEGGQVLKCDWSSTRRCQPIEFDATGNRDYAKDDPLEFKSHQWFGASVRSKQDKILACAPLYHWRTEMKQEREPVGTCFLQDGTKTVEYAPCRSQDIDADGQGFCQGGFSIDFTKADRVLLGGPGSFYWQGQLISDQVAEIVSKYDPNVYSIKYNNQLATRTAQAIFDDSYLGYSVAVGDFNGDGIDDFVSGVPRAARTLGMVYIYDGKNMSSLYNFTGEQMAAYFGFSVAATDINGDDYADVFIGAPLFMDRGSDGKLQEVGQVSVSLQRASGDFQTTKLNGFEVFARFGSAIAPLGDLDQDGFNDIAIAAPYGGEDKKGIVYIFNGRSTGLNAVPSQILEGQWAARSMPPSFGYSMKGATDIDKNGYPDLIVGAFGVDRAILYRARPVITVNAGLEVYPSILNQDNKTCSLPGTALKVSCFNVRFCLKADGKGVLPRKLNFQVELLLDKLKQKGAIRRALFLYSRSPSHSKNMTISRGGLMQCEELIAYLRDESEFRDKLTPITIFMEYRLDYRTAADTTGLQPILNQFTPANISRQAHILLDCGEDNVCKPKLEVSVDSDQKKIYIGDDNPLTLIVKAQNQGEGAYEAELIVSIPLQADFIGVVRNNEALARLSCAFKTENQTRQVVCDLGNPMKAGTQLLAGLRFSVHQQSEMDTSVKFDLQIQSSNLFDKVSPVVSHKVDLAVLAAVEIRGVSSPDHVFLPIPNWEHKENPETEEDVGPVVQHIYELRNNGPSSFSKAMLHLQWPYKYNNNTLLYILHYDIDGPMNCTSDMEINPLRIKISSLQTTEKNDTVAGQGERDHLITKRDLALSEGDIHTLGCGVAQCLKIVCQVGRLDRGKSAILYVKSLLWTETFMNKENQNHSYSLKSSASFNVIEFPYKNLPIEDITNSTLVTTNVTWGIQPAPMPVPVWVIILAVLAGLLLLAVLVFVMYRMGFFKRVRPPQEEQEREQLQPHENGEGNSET
T1 sequence (P18564 22-788, chain 2 of 2): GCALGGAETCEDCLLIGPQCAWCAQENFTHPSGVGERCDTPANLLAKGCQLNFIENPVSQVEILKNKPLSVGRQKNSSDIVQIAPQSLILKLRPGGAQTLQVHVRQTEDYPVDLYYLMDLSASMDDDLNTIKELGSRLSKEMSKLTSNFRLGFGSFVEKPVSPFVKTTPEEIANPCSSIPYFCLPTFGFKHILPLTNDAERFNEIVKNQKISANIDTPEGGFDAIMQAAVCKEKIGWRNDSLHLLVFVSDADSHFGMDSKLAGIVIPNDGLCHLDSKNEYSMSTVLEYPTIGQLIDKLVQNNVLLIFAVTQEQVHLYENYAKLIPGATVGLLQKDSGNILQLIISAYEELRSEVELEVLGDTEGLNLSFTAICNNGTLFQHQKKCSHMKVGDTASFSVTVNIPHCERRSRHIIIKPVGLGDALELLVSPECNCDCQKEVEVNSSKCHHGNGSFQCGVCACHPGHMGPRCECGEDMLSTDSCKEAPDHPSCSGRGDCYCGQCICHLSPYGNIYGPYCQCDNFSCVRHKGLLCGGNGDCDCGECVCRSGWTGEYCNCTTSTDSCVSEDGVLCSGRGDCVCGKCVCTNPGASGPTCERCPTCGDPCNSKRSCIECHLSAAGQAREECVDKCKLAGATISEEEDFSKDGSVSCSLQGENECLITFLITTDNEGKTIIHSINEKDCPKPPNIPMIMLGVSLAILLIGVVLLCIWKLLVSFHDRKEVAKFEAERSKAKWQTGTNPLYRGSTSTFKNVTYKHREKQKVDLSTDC

For the substance Ac-RGDLAAbuNMeLCitAib (peptide), the MFI (specific MFI ratio, sample/no-ligand) worked out at 1.3. For Ac-RGDLAEL[Cit][Aib] the value was 2.4; for Ac-RGDLAFL[Cit][Aib], 2. For Ac-RGDLAGL[Cit][Aib], the MFI (specific MFI ratio, sample/no-ligand) came out at 3.8. For Ac-RGDLAKL[Cit][Aib] the value was 3.6; for Ac-RGDLAPL[Cit][Aib], 2.8; for Ac-RGDLAQL[Cit][Aib], 3.6. For Ac-RGDLATL[Cit]QL, the MFI (specific MFI ratio, sample/no-ligand) was 3.94.

Regarding Ac-RGDLA[Abu]LE[Aib], the MFI (specific MFI ratio, sample/no-ligand) turned out to be 1.9. Under Ac-RGDLA[Abu]LF[Aib] stands 3.6. Turning to Ac-RGDLA[Abu]LG[Aib], the MFI (specific MFI ratio, sample/no-ligand) was 4. For Ac-RGDLA[Abu]LK[Aib] the value was 5.4. Under Ac-RGDLA[Abu]LP[Aib] stands 1.6; under Ac-RGDLA[Abu]LQ[Aib], 4.4.

With Ac-RGDLA[Abu]LRQL, the MFI (specific MFI ratio, sample/no-ligand) was 6.47.

Take Ac-RGDLA[Abu]L[Cit]: the MFI (specific MFI ratio, sample/no-ligand) turned out to be 3.3.

With Ac-RGDLA[Abu]L[Cit]E, the MFI (specific MFI ratio, sample/no-ligand) is 4. Under Ac-RGDLA[Abu]L[Cit]F stands 3.7. Under Ac-RGDLA[Abu]L[Cit]G stands 4.8; under Ac-RGDLA[Abu]L[Cit]K, 5.2; under Ac-RGDLA[Abu]L[Cit]P, 4. For Ac-RGDLA[Abu]L[Cit]Q the value was 4.4; for Ac-RGDLA[Abu]L[Cit][Aib], 4.7 and 3.8; for Ac-RGDLE[Abu]L[Cit][Aib], 2.6. Consider Ac-RGDLF[Abu]L[Cit][Aib], for which the MFI (specific MFI ratio, sample/no-ligand) is 2.7. Consider Ac-RGDLG[Abu]L[Cit][Aib], for which the MFI (specific MFI ratio, sample/no-ligand) turned out to be 3.7. For the substance Ac-RGDLK[Abu]L[Cit][Aib], the MFI (specific MFI ratio, sample/no-ligand) is 3.6. Consider Ac-RGDLP[Abu]L[Cit][Aib], for which the MFI (specific MFI ratio, sample/no-ligand) stood at 1. With Ac-RGDLQ[Abu]L[Cit][Aib], the MFI (specific MFI ratio, sample/no-ligand) came out at 3.7. For Ac-RGDL[Aib]TLRQL the value was 4. For Ac-RGDL[Cha]TLRQL, the MFI (specific MFI ratio, sample/no-ligand) turned out to be 5.1. For Ac-RGDL[Cha][Abu]L[Cit][Aib], the MFI (specific MFI ratio, sample/no-ligand) is 1.6. Under Ac-RGDLβ3-hAAbuLCitAib (peptide) stands 2.34. Under Ac-RGDLβ3-hATLRQL (peptide) stands 4.5; under Ac-RGDNMeLAAbuLCitAib (peptide), 1; under Ac-R[Sar]DLA[Abu]L[Cit][Aib], 2.6.

In the case of Ac-[Cit]GDLATL[Cit]QL, the MFI (specific MFI ratio, sample/no-ligand) was determined as 0.99. As to CH3(CH2)1CO-RGDLAAbuLCitAib (peptide), the MFI (specific MFI ratio, sample/no-ligand) amounted to 4.2. Consider CH3(CH2)2-RGDLAAbuLCitAib (peptide), for which the MFI (specific MFI ratio, sample/no-ligand) turned out to be 3.9.

With CH3(CH2)2CO-RGDLAAbuLCitAib (peptide), the MFI (specific MFI ratio, sample/no-ligand) came to 4.3. For CH3(CH2)3-RGDLAAbuLCitAib (peptide) the value was 4.7.

In the case of CH3(CH2)3CO-RGDLAAbuLCitAib (peptide), the MFI (specific MFI ratio, sample/no-ligand) is 4.1.

CH3(CH2)4-RGDLAAbuLCitAib (peptide): the MFI (specific MFI ratio, sample/no-ligand) was found to be 4.1. For the substance CH3(CH2)4CO-RGDLAAbuLCitAib (peptide), the MFI (specific MFI ratio, sample/no-ligand) is 3.9. For CH3CH2-RGDLAAbuLCitAib (peptide) the value was 4.4.
